Patent US20180186873A1 (CEPHALON, published 2018)
Like-named read-outs stand apart in the source and are kept apart here. One block for each binder: values may come before it.

How the values were obtained:
[1] = molecular target: T1, recombinant human IL-5 (human, UniProt P05113 20-134); assay: SPR
[2] = molecular target: T1, recombinant human IL-5; assay: cell-based or functional assay
[3] = molecular target: cynomolgus monkey IL-5 (cynomolgus monkey); assay: cell-based or functional assay
[4] = molecular target: T1, recombinant human IL-5; assay: SPR; remark: listed apart in the source
[5] = molecular target: T2, recombinant human IL-5 (human, UniProt P05113 20-134)
[6] = molecular target: T2, recombinant human IL-5; assay: Biacore SPR, purified Ab captured on Protein A, IL-5 injected, run 1.2
[7] = molecular target: T2, recombinant human IL-5; remark: listed apart in the source
[8] = molecular target: T2, recombinant human IL-5; remark: listed apart in the source
[9] = molecular target: T2, recombinant human IL-5; remark: listed apart in the source
[10] = molecular target: T2, recombinant human IL-5; remark: listed apart in the source
[11] = molecular target: T2, recombinant human IL-5; remark: listed apart in the source
[12] = molecular target: T2, recombinant human IL-5; assay: Biacore SPR, purified Ab captured on Protein A, IL-5 injected, run 2.1
[13] = molecular target: T2, recombinant human IL-5; remark: listed apart in the source
[14] = molecular target: T2, recombinant human IL-5; remark: listed apart in the source
[15] = molecular target: T3, recombinant human IL-5 (human, UniProt P05113 20-134); remark: listed apart in the source
[16] = molecular target: T3, recombinant human IL-5; assay: SPR Biacore, purified Ab on Protein A chip, IL-5 analyte, run 3.1
[17] = molecular target: T3, recombinant human IL-5; assay: SPR Biacore, purified Ab on Protein A chip, IL-5 analyte, run 2.2
[18] = molecular target: T3, recombinant human IL-5; remark: listed apart in the source
[19] = molecular target: T3, recombinant human IL-5; remark: listed apart in the source
[20] = molecular target: T3, recombinant human IL-5; remark: listed apart in the source
[21] = molecular target: T3, recombinant human IL-5; remark: listed apart in the source
[22] = molecular target: T3, recombinant human IL-5; remark: listed apart in the source
[23] = molecular target: T3, recombinant human IL-5; remark: listed apart in the source
[24] = molecular target: T3, recombinant human IL-5; remark: listed apart in the source
[25] = molecular target: T3, recombinant human IL-5; remark: listed apart in the source
[26] = molecular target: T3, recombinant human IL-5; remark: listed apart in the source

Kd [1]: 19.4 pM
koff [1]: 1.58e-05 s⁻¹
kon [1]: 816000 M⁻¹ s⁻¹
IC50, inhibition of IL-5 driven proliferation of TF-1.6G4 cells (Mean, pM) [2]: 13.8 pM
IC50, inhibition of IL-5 driven proliferation of TF-1.6G4 cells (Mean, pM) [3]: 43.8 pM
Kd [4]: 21.7 pM
koff [4]: 1.84e-05 s⁻¹
kon [4]: 849000 M⁻¹ s⁻¹
B1: 3A5.046 (antibody, human IgG4 S228P, lambda)
heavy: QVQLQESGPGLVKPSQTLSLTCTVSGGSISNGGYYWSWIRQHPGKGLEWIGYIYYSGSTYYNPSLKSRVTISVDTSKNQFSLKLSSVTAADTAVYYCASLGNWFDYWGQGTLVTVSSASTKGPSVFPLAPCSRSTSESTAALGCLVKDYFPEPVTVSWNSGALTSGVHTFPAVLQSSGLYSLSSVVTVPSSSLGTKTYTCNVDHKPSNTKVDKRVESKYGPPCPPCPAPEFLGGPSVFLFPPKPKDTLYITREPEVTCVVVDVSQEDPEVQFNWYVDGVEVHNAKTKPREEQFNSTYRVVSVLTVLHQDWLNGKEYKCKVSNKGLPSSIEKTISKAKGQPREPQVYTLPPSQEEMTKNQVSLTCLVKGFYPSDIAVEWESNGQPENNYKTTPPVLDSDGSFFLYSRLTVDKSRWQEGNVFSCSVMHEALHNHYTQKSLSLSLG
light: SYVLTQPPSVSVAPGQTARITCGGNNIGSKNVYWYQQKPGQAPVLVVHDDSDRPSGIPERFSGSNSGNTATLTISRVEVGDEADYSCQVWDSSSDHVVFGGGTKLTVLGQPKAAPSVTLFPPSSEELQANKATLVCLISDFYPGAVTVAWKADSSPVKAGVETTTPSKQSNNKYAASSYLSLTPEQWKSHRSYSCQVTHEGSTVEKTVAPTECS

Kd [5]: 150 pM
koff [5]: 0.00011 s⁻¹
kon [5]: 732000 M⁻¹ s⁻¹
Kd [6]: 151 pM
koff [6]: 0.000111 s⁻¹
kon [6]: 735000 M⁻¹ s⁻¹
Kd [7]: 180 pM
koff [7]: 0.000133 s⁻¹
kon [7]: 740000 M⁻¹ s⁻¹
Kd [8]: 143 pM
koff [8]: 0.000104 s⁻¹
kon [8]: 728000 M⁻¹ s⁻¹
Kd [9]: 129 pM
koff [9]: 9.36e-05 s⁻¹
kon [9]: 727000 M⁻¹ s⁻¹
Kd [10]: 115 pM
koff [10]: 8.22e-05 s⁻¹
kon [10]: 714000 M⁻¹ s⁻¹
Kd [11]: 163 pM
koff [11]: 0.000116 s⁻¹
kon [11]: 713000 M⁻¹ s⁻¹
Kd [12]: 142 pM
koff [12]: 0.000105 s⁻¹
kon [12]: 737000 M⁻¹ s⁻¹
Kd [13]: 163 pM
koff [13]: 0.000116 s⁻¹
kon [13]: 713000 M⁻¹ s⁻¹
Kd [14]: 139 pM
koff [14]: 0.000101 s⁻¹
kon [14]: 728000 M⁻¹ s⁻¹
B2: 3A5.040 (antibody, human IgG4 S228P, lambda)
heavy: not shown
light: SYVLTQPPSVSVAPGQTARITCGGNNIGSKNVYWYQQKPGQAPVLVVHDDSDRPSGIPERFSGSNSGNTATLTISRVEVGDEADYSCQVWDSSSDHVVFGGGTKLTVLGQPKAAPSVTLFPPSSEELQANKATLVCLISDFYPGAVTVAWKADSSPVKAGVETTTPSKQSNNKYAASSYLSLTPEQWKSHRSYSCQVTHEGSTVEKTVAPTECS

Kd [15]: 150 pM
koff [15]: 0.000117 s⁻¹
kon [15]: 779000 M⁻¹ s⁻¹
Kd [16]: 174 pM
koff [16]: 0.00014 s⁻¹
kon [16]: 807000 M⁻¹ s⁻¹
Kd [17]: 133 pM
koff [17]: 0.000106 s⁻¹
kon [17]: 793000 M⁻¹ s⁻¹
Kd [18]: 151 pM
koff [18]: 0.000117 s⁻¹
kon [18]: 775000 M⁻¹ s⁻¹
Kd [19]: 134 pM
koff [19]: 0.000103 s⁻¹
kon [19]: 773000 M⁻¹ s⁻¹
Kd [20]: 153 pM
koff [20]: 0.00012 s⁻¹
kon [20]: 784000 M⁻¹ s⁻¹
Kd [21]: 149 pM
koff [21]: 0.000114 s⁻¹
kon [21]: 769000 M⁻¹ s⁻¹
Kd [22]: 148 pM
koff [22]: 0.000115 s⁻¹
kon [22]: 776000 M⁻¹ s⁻¹
Kd [23]: 171 pM
koff [23]: 0.000132 s⁻¹
kon [23]: 772000 M⁻¹ s⁻¹
Kd [24]: 135 pM
koff [24]: 0.000105 s⁻¹
kon [24]: 777000 M⁻¹ s⁻¹
Kd [25]: 138 pM
koff [25]: 0.000109 s⁻¹
kon [25]: 789000 M⁻¹ s⁻¹
Kd [26]: 177 pM
koff [26]: 0.000137 s⁻¹
kon [26]: 772000 M⁻¹ s⁻¹
B3: 3A5.040 (antibody, human IgG4 S228P, lambda)
heavy: not shown
light: SYVLTQPPSVSVAPGQTARITCGGNNIGSKNVYWYQQKPGQAPVLVVHDDSDRPSGIPERFSGSNSGNTATLTISRVEVGDEADYSCQVWDSSSDHVVFGGGTKLTVLGQPKAAPSVTLFPPSSEELQANKATLVCLISDFYPGAVTVAWKADSSPVKAGVETTTPSKQSNNKYAASSYLSLTPEQWKSHRSYSCQVTHEGSTVEKTVAPTECS
